Experimental data published in patent US20100272736A1 (KALOBIOS PHARMACEUTICALS, published 2010).
Where a chain is given by its changes, count along the chain named.

B1: Fab SEQ ID NOs: 5, 6 (Fab, V domains shown)
VH: QVQLVESGGGVVQPGRSLRLSCTASGFSFSSYGMHWVRQAPGKGLEWVAVIWYNGKEISYADSVKGRFTVSRDNPKNTLYLQMSSLRTEDTAVYYCARNRGDIYYDFTYAMDIWGQGTMVTVSS
VL: AIQLTQSPSFLSASVGDRVTITCRASQGISTYLAWYQQKPGKAPKLLIYAASSLQSGVPSRFSGSGSGTDFTLTISSLQPEDVATYYCQQFWSTPYTFGQGTKLEIK
B2: Fab SEQ ID NOs: 13, 4 (Fab, V domains shown)
VH: QVQLVESGGGVVQPGRSLRLSCAASGFTFSSYPLHWVRQAPGKGLEWVSFISYDGSEKYYASSVKGRFTISRDNSENTLYLQMNSLRPEDTAVYYCARNRGDIYYDFTYAMDIWGQGTMVTVSS
VL: DIQMTQSPSSLSASVGDRVTITCRASQSISRWVAWYQQRPGKAPNLLIYDASSLKSGVPSRFSGSGSGTEFTLTISSLQPEDIATYYCQQFWSTPYTFGQGTKLEIK
B3: Fab SEQ ID NOs: 13, 10 (Fab, V domains shown)
VH: B2 VH
VL: B1 VL with A1D, A50D, S53A, D70E
B4: Fab SEQ ID NOs 3, 4 (Fab, V domains shown)
VH: B1 VH with R16G, T23A, S28T, S31T, Y32A
VL: B2 VL
B5: Fab SEQ ID NOs: 13, 37 (Fab, V domains shown)
VH: B2 VH
VL: B2 VL with S93G
B6: Fab SEQ ID NOs. 24, 26 (Fab, V domains shown)
VH: B2 VH with Q1E, S31N, L34M, S49A, F50V, Y59W, S62D, E76K, Q82E, M119T
VL: DIQLTQSPSTLSASVGDSVTITCRASEGVDRWLAWYQQKPGRAPKLLIYDASTLQSGVPSRFSGSGSGTEFSLTISSLQPDDVATYYCQHFWGTPYTFGQGTKLEIK
B7: Fab SEQ ID NOs. 35. 36 (Fab, V domains shown)
VH: EVQLVESGGGVVQPGRSLRLSCAASGFTFSNYPMHWVRQAPGKGLEWVAVISYDGSEKWYADSVKGRFTISRDNSKNTLYLEMNSLRPEDTAVYYCARNRGDIYYDFTYAMDYWGQGTTVTVSS
VL: B6 VL with G93S

Biological target: PcrV on Pseudomonas aeruginosa strain PA103 (type III secretion system) (Pseudomonas aeruginosa strain PA103)
Experiment: cell-based or functional assay

Binder | IC50 (nM), TTSS-dependent cytotoxicity assay (PA103 killing of P3-X63-Ag8 myeloma cells, propidium iodide flow cytometry) [nM]
B1 | 50.2
B2 | 20
B3 | 25.5
B4 | 35.1
B5 | 12
B6 | 25.5
B7 | 61.4
